Here are results for 1 substance from publication PMC7302216.

A word on the stoichiometry N: it is the number of molecules, sites or subunits per partner or assembly.

The target in this assay is SARS-CoV 2P DS S (SARS-CoV) (UniProt P59594). The assay is described as follows: negative-stain electron microscopy.

In the case of “SARS-CoV 2P DS S (from UniProt P59594 14-1195) (domain or fragment)”, the stoichiometry N came to 3.
